The nature of the series: Partition coefficient K in two-phase aqueous system PEG (1000) 12.5%-K2HPO4 12.5%. The format is physicochemical. Conditions: PEG (MW 1000) 12.5%-K2HPO4 12.5% two-phase aqueous solvent system. From the text:
A determination of the partition coefficient, K, is made by dissolving a small sample into a solvent system, shaking the mixture, and measuring the concentration of the sample in both phases after separation of the phases. That provides the ratio of concentration in the upper to lower phase (Cu/Cl). The phase chosen as the mobile phase is that giving a partition coefficient of 1 to 2. The efficiency of a separation will be determined by use of the conventional gas chromatographic equation: N=(4R/W)^2. The theoretical plates or N is calculated from the shape of the peaks. R is the retention time or volume of the peak maximum and W is the peak width expressed in the same units as R. For preparative separations, the values of N may be up to 1000, but the more important relationship is resolution. Resolution between adjacent peaks is given by: RS=2(VR,2−VR,1)/(W1+W2). Using that equation and substituting each solute retention volume by the following: VR=Vm+KVS. The Vm term cancels giving: RS=2(K2−K1)Vs/(W1+W2).
The apparatus of interest can be used to separate proteins or other large molecules. In this example, the spiral tube support was made as described above and used to purify mouse uteroglobin. Mouse uteroglobin has a MW of […] and normally exists as a dimer; but, in solution, a monomeric form of the protein can also accumulate. A separation was made in the spiral tube support to separate uteroglobin monomers from uteroglobin dimers. This was done by measuring the K value using HPLC and then separating the protein using countercurrent chromatography with the spiral tube support apparatus. […] The heights of the peaks representing the monomer at 31.5 min. and dimer at 32.8 min. HPLC retention time, respectively, were measured and the ratios give different values for the concentration in the upper phase over that of the lower phase. The two protein peaks calculated to K values of 4.0 and 6.9 in PEG (1000) 12.5%-K2HPO4 12.5%. The different K values mean that the two species could be separated with one or the other phase mobile. Since the numeric value is over two, the analyte would remain in the coil a long time, ultimately being eluted in approximately four to seven column volumes. Consequently, a run was performed for two column volumes and then the contents of the column were extruded and analyzed.
In this example, 31 mg lysozyme (14.4 kDa) and 24 mg myoglobin (17.7 kDa) were mixed and separated using the countercurrent chromatography apparatus and methods of use as claimed. A non-denaturing two-phase aqueous solvent system consisting of 12.5% PEG (MW 1000):12.5% K2HPO4 provides for a polyethylene-rich upper phase and phosphate buffer-rich lower phase. The lower phase was used as the mobile phase at a flow rate of 1 ml/min. […]

As to “uteroglobin monomer: monomeric form of mouse uteroglobin protein”, the “K value (concentration in upper phase over lower phase)” value turned out to be 4.0.

As to myoglobin, the “K value (concentration in upper phase over lower phase)” value turned out to be 0.38.

Turning to “uteroglobin dimer: dimeric form of mouse uteroglobin protein”, the “K value (concentration in upper phase over lower phase)” value is 6.9.

Consider lysozyme, for which the “K value (concentration in upper phase over lower phase)” value turned out to be 1.35.

These data come from patent US8597509B2, “Countercurrent chromatography rotor” (CC Biotech LLC, priority 2008, dated 2013).
